Source: patent publication US20190030114

B1: calpain-2 (m-calpain), Mus musculus (protein)
chain: SHERAIKYLNQDYETLRNECLEAGALFQDPSFPALPSSLGYKELGPYSSKTRGIEWKRPTEICADPQFIIGGATRTDICQGALGDCWLLAAIASLTLNEEILARVVPPDQSFQENYAGIFHFQFWQYGEWVEVVVDDRLPTKDGELLFVHSAEGSEFWSALLEKAYAKINGCYETLSGGATTEGFEDFTGGIAEWYELRKPPPNLFKIIQKALEKGSLLGCSIDITSAADSEAVTYQKLVKGHAYSVTGAEEVESSGSLQKLIRIRNPWGQVEWTGKWNDNCPSWNTVDPEVRANLTERQEDGEFWMSFSDFLRHYSRLEICNLTPDTLTCDSYKKWKLTKMDGNWRRGSTAGGCRNYPNTFWMNPQYLIKLEEEDEDEEDGGRGCTFLVGLIQKHRRRQRKMGEDMHTIGFGIYEVPEELTGQTNIHLGKNFFLTTRARERSDTFINLREVLNRFKLPPGEYVLVPSTFEPHKDGDFCIRVFSEKKADYQAVDDEIEANIEEIDANEEDIDDGFRRLFVQLAGEDAEISAFELQTILRRVLAKRQDIKSDGFSIETCKIMVDMLDEDGSGKLGLKEFYILWTKIQKYQKIYREIDVDRSGTMNSYEMRKALEEAGFKLPCQLHQVIVARFADDELIIDFDNFVRCLVRLETLFKIFKQLDPENTGTIQLNLASWLSFSVL
B2: calpain-1 (µ-calpain), Mus musculus (protein)
chain: MTEELITPVYCTGVSAQVQKKRDKELGLGRHENAIKYLGQDYETLRARCLQSGVLFQDEAFPPVSHSLGFKELGPHSSKTYGIKWKRPTELMSNPQFIVDGATRTDICQGALGDCWLLAAIASLTLNETILHRVVPYGQSFQDGYAGIFHFQLWQFGEWVDVVIDDLLPTKDGKLVFVHSAQGNEFWSALLEKAYAKVNGSYEALSGGCTSEAFEDFTGGVTEWYDLQKAPSDLYQIILKALERGSLLGCSINISDIRDLEAITFKNLVRGHAYSVTGAKQVTYQGQRVNLIRMRNPWGEVEWKGPWSDSSYEWNKVDPYEREQLRVKMEDGEFWMSFRDFIREFTKLEICNLTPDALKSRTLRNWNTTFYEGTWRRGSTAGGCRNYPATFWVNPQFKIRLEEVDDADDYDNRESGCSFLLALMQKHRRRERRFGRDMETIGFAVYQVPRELAGQPVHLKRDFFLANASRAQSEHFINLREVSNRIRPPPGEYIVVPSTFEPNKEGDFLLRFFSEKKAGTQELDDQIQANLPDEKVLSEEEIDDNFKTLFSKLAGDDMEISVKELQTILNRIISKHKDLRTNGFSLESCRSMVNLMDRDGNGKLGLVEFNILWNRIRNYLTIFRKFDLDKSGSMSAYEMRMAIEAAGFKLNKKLHELIITRYSEPDLAVDFDNFVCCLVRLETMFRFFKLLDTDLNGVVTFDLFKWLQLTMFA

Experiments:
[1] = target: T1, striatal-enriched protein tyrosine phosphatase (STEP), P54830
T1 chain: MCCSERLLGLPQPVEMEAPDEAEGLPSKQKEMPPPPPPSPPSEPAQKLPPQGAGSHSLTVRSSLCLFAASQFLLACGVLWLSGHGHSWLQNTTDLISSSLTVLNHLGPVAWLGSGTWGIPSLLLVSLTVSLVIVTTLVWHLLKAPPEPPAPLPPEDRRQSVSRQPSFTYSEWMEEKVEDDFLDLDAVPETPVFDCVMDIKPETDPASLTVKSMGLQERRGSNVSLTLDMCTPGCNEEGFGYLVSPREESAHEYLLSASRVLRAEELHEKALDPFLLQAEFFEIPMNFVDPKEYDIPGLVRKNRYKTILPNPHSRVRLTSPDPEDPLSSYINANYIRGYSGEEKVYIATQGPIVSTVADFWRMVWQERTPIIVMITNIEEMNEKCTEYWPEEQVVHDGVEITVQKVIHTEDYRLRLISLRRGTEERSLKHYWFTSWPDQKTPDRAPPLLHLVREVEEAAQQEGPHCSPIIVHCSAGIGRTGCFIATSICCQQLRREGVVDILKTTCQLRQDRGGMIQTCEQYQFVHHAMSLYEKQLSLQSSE

Row | Protein | SBDP levels, immunoblot of mouse retinal extracts 6 h after intravitreal NMDA injection (spectrin, P16546) | STEP33 (cleavage product of STEP), Western blot of retina 3 h after IOP elevation [1]
1 | B1 | Levels of SBDP were significantly increased; injection of C2l significantly suppressed NMDA-induced changes in SBDP | STEP33 was present in WT and calpain-1 KO mice but not in C2l-injected WT mice following increased IOP
2 | B2 | – | STEP33 was present in WT and calpain-1 KO mice (no part of calpain-1)
